# Substitutions are numbered along the chain they refer to.
# B1: Clone 1 (pVxK7b-037-hum01-LC / pVxK7b-037-hum01-HC) (antibody, human IgG1, kappa)
# light: DIVMTQTPLSLPVTPGEPASISCRSSQSLVHSNGNTYLHWYQQKPGKAPKLLIYKVSYRFSGVPDRFSGSGSGTDFTLKISRVEAEDVGVYYCSQNTHVPRTFGQGTKVEIKRTVAAPSVFIFPPSDEQLKSGTASVVCLLNNFYPREAKVQWKVDNALQSGNSQESVTEQDSKDSTYSLSSTLTLSKADYEKHKVYACEVTHQGLSSPVTKSFNRGEC
# heavy: not shown
# notes: also called Cl 1
# B2: Clone 20 (pVxK7b-037-hum20-LC / pVxK7b-037-hum20-HC) (antibody, human IgG1, kappa)
# light: B1 light with Q42L, K47Q, A48S, K50Q
# heavy: not shown
# B3: Clone 19 (pVxK7b-037-hum19-LC / pVxK7b-037-hum19-HC) (antibody, human IgG1, kappa)
# light: B1 light with I2V, T7S, P15L, E17Q
# heavy: not shown
# B4: Clone 3 (pVxK7b-037-hum03-LC / pVxK7b-037-hum03-HC) (antibody, human IgG1, kappa)
# light: B1 light with I2V, T7S, P15L, E17Q
# heavy: not shown
# B5: Clone 13 (pVxK7b-037-hum13-LC / pVxK7b-037-hum13-HC) (antibody, human IgG1, kappa)
# light: B1 light
# heavy: not shown
# notes: also called Cl 13
# B6: Clone 14 (pVxK7b-037-hum14-LC / pVxK7b-037-hum14-HC) (antibody, human IgG1, kappa)
# light: B1 light with I2V, T7S, P15L, E17Q
# heavy: not shown
# B7: chimeric antibody VxP037-01LC-Pro/VxP037-01HC-Pro (antibody, human IgG1, kappa, V domains shown)
# VH: EVQLQQFGAELVKPGASMKLSCKASGYTFTNYYVFWVKQRPGQGLEWIGDINPVNGDTNFNEKFKNKATLTVDKSSTTTYLQLSSLTSEDSAVYYCTRGGYTMDYWGQGTLVTVSS
# VL: DVVMTQTPLSLSVSLGDQASISCRSSQSLVHSNGNTYLHWYLQKPGQSPKLLIYKVSYRFSGVPDRFSGSGSGTDFTLKISRVEAEDLGVYFCSQNTHVPRTFGQGTKVEIKR
# notes: also called Chimera; VxP037-01LC/VxP037-01HC
# B8: Clone 15 (pVxK7b-037-hum15-LC / pVxK7b-037-hum15-HC) (antibody, human IgG1, kappa, V domains shown)
# VH: QVQLQESGPGLVKPSQTLSLTCTVSGYTFTNYYVFWVRQARGQRLEWIGDINPVNGDTNFNEKFKNRLTISKDTSKNQVVLTMTNMDPVDTATYYCARGGYTMDYWGQGTLVTVSS
# VL: AIQLTQSPSSLSASVGDRVTITCRSSQSLVHSNGNTYLHWYQQKPGQAPRLLIYKVSYRFSGVPSRFSGSGSGTEFTLTISSLQPDDFATYYCSQNTHVPRTFGQGTKVEIKR
# B9: Clone 6 (pVxK7b-037-hum06-LC / pVxK7b-037-hum06-HC) (antibody, human IgG1, kappa, V domains shown)
# VH: B8 VH
# VL: B8 VL with A1D, L4M, Q42L, A48S, R50Q, V63I, S65A, P85S, D86E, T90V
# Molecular target: T1, human CD47 (human, UniProt Q08722 19-323)
# T1 construct: whole, on cells; also called CD47 on human RBCs; CD47 on OV10 cells
# Test: FACS, human RBCs, supernatant 10 ng/ml
# Protocol: (§1) RBCs are incubated for 60 minutes on ice with tissue culture supernatants containing the secreted humanized antibodies at a concentration of 10 ng/ml in a solution of phosphate buffered saline, pH 7.2, 2.5 mM EDTA (PBS+E), or with various concentrations of purified antibodies. Cells are then washed with cold PBS+E, and incubated for an additional hour on ice with FITC labeled donkey anti-human antibody (Jackson Immuno Research Labs, West Grove, Pa.; Catalogue #709-096-149) in PBS+E. Cells are then washed with PBS+E, and antibody binding is analyzed using a BD FACSAria Cell Sorter (Becton Dickinson) or a C6 Accuri Flow Cytometer (Becton Dickinson). Antibody binding is quantitated by comparison of mean fluorescence values relative to that of chimeric antibody >VxP037-01LC (SEQ ID NO:7))/>VxP037-01HC (SEQ ID NO:57). The mean fluorescence value for each antibody is divided by the mean fluorescence value for the chimeric antibody.
# T1 sequence (Q08722 19-323): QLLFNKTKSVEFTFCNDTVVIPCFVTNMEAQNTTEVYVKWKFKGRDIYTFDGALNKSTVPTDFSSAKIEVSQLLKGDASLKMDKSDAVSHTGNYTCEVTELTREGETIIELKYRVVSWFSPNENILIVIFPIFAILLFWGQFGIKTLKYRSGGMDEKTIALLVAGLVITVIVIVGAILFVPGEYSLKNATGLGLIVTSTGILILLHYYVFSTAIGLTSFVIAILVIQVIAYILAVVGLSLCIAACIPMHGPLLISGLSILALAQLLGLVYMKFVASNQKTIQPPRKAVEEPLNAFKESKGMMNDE
row,Binder,mean fluorescence relative to chimera
1,B1,1.1
2,B2,1.3
3,B3,0.7
4,B4,0.7
5,B5,1.2
6,B6,1.1
7,B7,1
8,B8,1
9,B9,0.9

# Molecular target: T2, mouse CD47 (mouse, UniProt Q61735 19-303)
# T2 construct: whole, on cells; also called CD47 on mouse RBCs; CD47 on 4T1 cells
# T2 sequence (looked up): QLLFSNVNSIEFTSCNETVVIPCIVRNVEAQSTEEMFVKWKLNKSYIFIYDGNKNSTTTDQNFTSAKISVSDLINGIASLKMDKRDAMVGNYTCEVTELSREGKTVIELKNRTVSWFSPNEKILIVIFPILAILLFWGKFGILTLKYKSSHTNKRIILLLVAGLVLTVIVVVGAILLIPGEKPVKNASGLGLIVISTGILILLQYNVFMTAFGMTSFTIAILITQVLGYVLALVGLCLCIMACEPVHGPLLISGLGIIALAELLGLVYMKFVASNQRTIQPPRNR
# Test: FACS, mouse RBCs, supernatant 10 ng/ml
# Protocol: as §1
row,Binder,mean fluorescence relative to chimera
1,B1,1.7
2,B2,1.5
3,B3,1
4,B4,0.9
5,B5,1.3
6,B6,1.5
7,B7,1
8,B8,1.3
9,B9,1.2

# Molecular target: T3, rat CD47 (rat, UniProt P97829 19-303)
# T3 construct: whole, on cells; also called CD47 on rat RBCs
# T3 sequence (looked up): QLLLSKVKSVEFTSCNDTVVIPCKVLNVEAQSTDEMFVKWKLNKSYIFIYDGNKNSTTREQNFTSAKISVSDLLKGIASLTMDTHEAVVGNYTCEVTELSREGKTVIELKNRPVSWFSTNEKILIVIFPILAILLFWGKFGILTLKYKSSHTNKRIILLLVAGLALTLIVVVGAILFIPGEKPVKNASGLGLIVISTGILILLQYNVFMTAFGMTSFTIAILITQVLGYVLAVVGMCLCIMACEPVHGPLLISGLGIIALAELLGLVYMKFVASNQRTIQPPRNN
# Test: FACS, rat RBCs, supernatant 10 ng/ml
# Protocol: as §1
row,Binder,mean fluorescence relative to chimera
1,B1,2.7
2,B2,1.9
3,B3,2.6
4,B4,1.7
5,B5,3.1
6,B6,3.2
7,B7,1
8,B8,2.4
9,B9,2.1

# Molecular target: T4, pig CD47 (pig, UniProt Q9GKE8 19-303)
# T4 construct: whole, on cells; also called CD47 on porcine RBCs
# T4 sequence (looked up): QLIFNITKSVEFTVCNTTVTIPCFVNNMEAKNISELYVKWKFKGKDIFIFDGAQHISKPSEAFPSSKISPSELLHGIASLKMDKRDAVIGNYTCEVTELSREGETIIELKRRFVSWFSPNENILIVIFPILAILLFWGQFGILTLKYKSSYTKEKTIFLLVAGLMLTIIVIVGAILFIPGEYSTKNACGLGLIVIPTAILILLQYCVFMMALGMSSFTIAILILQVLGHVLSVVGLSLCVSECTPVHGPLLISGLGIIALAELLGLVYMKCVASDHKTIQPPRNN
# Test: FACS, pig RBCs, supernatant 10 ng/ml
# Protocol: as §1
row,Binder,mean fluorescence relative to chimera
1,B1,1.3
2,B2,1.7
3,B3,1.3
4,B4,0.9
5,B5,1.4
6,B6,1.4
7,B7,1
8,B8,1.2
9,B9,1.1

# Molecular target: T5, dog CD47 (dog, UniProt A0A8I3PM61 19-310)
# T5 construct: also called CD47 on dog RBCs
# T5 sequence: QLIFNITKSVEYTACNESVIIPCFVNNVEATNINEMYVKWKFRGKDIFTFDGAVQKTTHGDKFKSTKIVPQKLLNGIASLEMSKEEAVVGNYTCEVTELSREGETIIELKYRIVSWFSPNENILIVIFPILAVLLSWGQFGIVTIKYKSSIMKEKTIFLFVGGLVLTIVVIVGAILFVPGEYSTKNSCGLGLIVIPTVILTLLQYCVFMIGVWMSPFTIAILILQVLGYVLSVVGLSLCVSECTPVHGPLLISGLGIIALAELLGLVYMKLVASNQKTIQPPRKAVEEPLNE
# Test: FACS, dog RBCs, supernatant 10 ng/ml
# Protocol: as §1
row,Binder,mean fluorescence relative to chimera
1,B1,1
2,B2,1.1
3,B3,1.2
4,B4,0.9
5,B5,1
6,B6,1.3
7,B7,1
8,B8,1.1
9,B9,1.1
